The term stoichiometry N denotes the number of molecules, sites or subunits per partner or assembly.

From article PMC6028546, “Control of mitotic chromosome condensation by the fission yeast transcription factor Zas1” come the findings set out here.

Data set [1] concerns the target Zas1 (recombinant, from the short zas1 cDNA ORF) (S. pombe). The data set can be described thus: SEC-MALS; analytical SEC coupled to multiangle light scattering of purified Zas1; two independent chromatography runs. On the technique in general: Size exclusion chromatography separates by hydrodynamic size, large species first.
For data set [2], the target named is T1, Zas1 (short cDNA ORF, two zinc fingers) (Schizosaccharomyces pombe, UniProt Q9UTS5-2 1-845).
T1 sequence: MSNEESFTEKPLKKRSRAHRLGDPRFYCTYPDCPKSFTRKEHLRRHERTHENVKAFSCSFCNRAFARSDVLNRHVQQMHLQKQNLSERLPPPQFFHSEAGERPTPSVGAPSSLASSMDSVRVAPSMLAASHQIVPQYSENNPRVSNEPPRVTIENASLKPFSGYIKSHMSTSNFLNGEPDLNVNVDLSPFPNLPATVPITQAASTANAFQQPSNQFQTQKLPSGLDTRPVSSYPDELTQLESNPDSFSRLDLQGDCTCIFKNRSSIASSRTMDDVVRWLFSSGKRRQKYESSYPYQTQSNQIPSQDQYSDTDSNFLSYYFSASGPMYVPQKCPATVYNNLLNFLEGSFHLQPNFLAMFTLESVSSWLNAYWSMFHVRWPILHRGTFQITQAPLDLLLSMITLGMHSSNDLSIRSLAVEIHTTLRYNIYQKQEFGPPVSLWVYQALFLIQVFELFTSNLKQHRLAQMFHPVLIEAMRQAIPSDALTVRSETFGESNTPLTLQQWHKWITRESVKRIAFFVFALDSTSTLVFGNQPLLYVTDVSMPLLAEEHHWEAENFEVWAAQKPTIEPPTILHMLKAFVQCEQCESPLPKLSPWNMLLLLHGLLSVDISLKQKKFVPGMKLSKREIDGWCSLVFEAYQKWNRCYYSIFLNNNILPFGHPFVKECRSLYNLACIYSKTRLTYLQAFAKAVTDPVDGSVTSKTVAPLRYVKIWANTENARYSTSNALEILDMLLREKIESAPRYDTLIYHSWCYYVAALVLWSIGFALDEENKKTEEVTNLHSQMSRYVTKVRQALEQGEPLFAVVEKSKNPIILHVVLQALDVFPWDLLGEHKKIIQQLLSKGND
The experiment in a line: EMSA; 20 uM ZnCl2, 5 mM MgCl2; EMSA: 10 mM Tris-HCl pH 8.0, 125 mM NaCl, 5 mM MgCl2, 20 uM ZnCl2; 400 nM DNA, 0/200/400/800 nM Zas1; 90 min on ice; 1.8% agarose, Tris-acetate pH 8.7, 6 C. As to conditions: protein: recombinant; chain copies: 2; label: 5' 6-FAM on strand 1; blunt. On the technique in general: Mobility shift assays separate free from complexed probe on a gel.

For the molecule “Zas1 (recombinant, from the short zas1 cDNA ORF) (natural protein)”, the stoichiometry N in data set [1] stood at 2.

B1: Ppob1 (dsDNA)
DNA 1: AAAGCCCCCACGAAGGTCGTCTTTCCCCACATAGATTATT
DNA 2: AATAATCTATGTGGGGAAAGACGACCTTCGTGGGGGCTTT
With B1, the binding result in data set [2] is on record as “binds”.

B2: Pcnd1 (dsDNA)
DNA 1: AATGGACCCCCACACAGGACATATAGGTGGGGTTATTGT
DNA 2: ACAATAACCCCACCTATATGTCCTGTGTGGGGGTCCATT
As for B2, the binding result in data set [2] is on record as “binds”.
